The text below walks through data of the supplement of paper PMC12338614.

± gives the uncertainty stated by the source.

B1: library; numbered along this chain (parent)
chain: MEVVDPQQLGMFTEGELMSVGMDTFIHRIDSTEVIYQPRRKRAKLIGKYLMGDLLGEGSYGKVKEVLDSETLCRRAVKILKKKKLRRIPNGEANVKKEIQLLRRLRHKNVIQLVDVLYNEEKQKMYMVMEYCVCGMQEMLDSVPEKRFPVCQAHGYFCQLIDGLEYLHSQGIVHKDIKPGNLLLTTGGTLKISDLGVAEALHPFAADDTCRTSQGSPAFQPPEIANGLDTFSGFKVDIWSAGVTLYNITTGLYPFEGDNIYKLFENIGKGSYAIPGDCGPPLSDLLKGMLEYEPAKRFSIRQIRQHSWFRKKHPPAEAPVPIPPSPDTKDRWRSMTVVPYLEDLHGADEDEDLFDIEDDIIYTQDFTVPGQVPEEEASHNGQRRGLPKAVCMNGTEAAQLSTKSRAEGRAPNPARKACSASSKIRRLSACKQQ

The variants in this data set derive from B1. The experiment in a line: STK11 functional score (HeLa growth suppression), rescaled enrichment; synonymous median = 1, nonsense median = 0 (normalised score). The following applies: with HeLa; variant type: missense. In short, it runs like this:
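Functional scores are post/pre-selection log ratios corrected to wild type, rescaled to synonymous and nonsense medians, merged over codons and replicate transfections, and given bootstrapped error. They come from POPCode libraries of codon-optimised STK11 integrated by Bxb1 at an AAVS1 landing pad in HeLa, three regions each transfected three times, with BFP-negative, mCherry-positive integrants sorted by FACS and tiled gDNA amplicons sequenced on NextSeq.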
For MEVVDPQQLGMFTEGELMSVGMDTFIHRIDSTEVIYQPRRKRAKLIGKYLMGDLLGEGSYGKVKEVLDSETLCRRAVKILKKKKLRRIPNGEANVKKEIQLLRRLRHKNVIQLVDVLYNEEKQKMYMVMEYCVCGMQEMLDSVPEKRFPVCQAHGYFCQLIDGLEYLHSQGIVHKDIKPGNLLLTTGGTLKISDLGVAEALHPFAADDTCRTSQGSPAFQPPEIANGLDTFSGFKVDIWSAGVTLYNITTGLYPFEGDNIYKLFENIGKGSYAIPGDCGPPLSDLLKGMLEYEPAKRFSIRQIRQHSWFRKKHLPAEAPVPIPPSPDTKDRWRSMTVVPYLEDLHGADEDEDLFDIEDDIIYTQDFTVPGQVPEEEASHNGQRRGLPKAVCMNGTEAAQLSTKSRAEGRAPNPARKACSASSKIRRLSACKQQ [P314L], the STK11 functional score came out at 1.21 ± 0.15. Regarding MEVVDPQQLGMFTEGELMSVGMDTFIHRIDSTEVIYQPRRKRAKLIGKYLMGDLLGEGSYGKVKEVLDSETLCRRAVKILKKKKLRRIPNGEANVKKEIQLLRRLRHKNVIQLVDVLYNEEKQKMYMVMEYCVCGMQEMLDSVPEKRFPVCQAHGYFCQLIDGLEYLHSQGIVHKDIKPGNLLLTTGGTLKISDLGVAEALHPFAADDTCRTSQGSPAFQPPEIANGLDTFSGFKVDIWSAGVTLYNITTGLYPFEGDNIYKLFENIGKGSYAIPGDCGPPLSDLLKGMLEYEPAKRFSIRQIRQHSWFRKKHFPAEAPVPIPPSPDTKDRWRSMTVVPYLEDLHGADEDEDLFDIEDDIIYTQDFTVPGQVPEEEASHNGQRRGLPKAVCMNGTEAAQLSTKSRAEGRAPNPARKACSASSKIRRLSACKQQ [P314F], the STK11 functional score was 1.18 ± 0.26. Turning to MEVVDPQQLGMFTEGELMSVGMDTFIHRIDSTEVIYQPRRKRAKLIGKYLMGDLLGEGSYGKVKEVLDSETLCRRAVKILKKKKLRRIPNGEANVKKEIQLLRRLRHKNVIQLVDVLYNEEKQKMYMVMEYCVCGMQEMLDSVPEKRFPVCQAHGYFCQLIDGLEYLHSQGIVHKDIKPGNLLLTTGGTLKISDLGVAEALHPFAADDTCRTSQGSPAFQPPEIANGLDTFSGFKVDIWSAGVTLYNITTGLYPFEGDNIYKLFENIGKGSYAIPGDCGPPLSDLLKGMLEYEPAKRFSIRQIRQHSWFRKKHQPAEAPVPIPPSPDTKDRWRSMTVVPYLEDLHGADEDEDLFDIEDDIIYTQDFTVPGQVPEEEASHNGQRRGLPKAVCMNGTEAAQLSTKSRAEGRAPNPARKACSASSKIRRLSACKQQ [P314Q], the STK11 functional score is 1.17 ± 0.14. Regarding MEVVDPQQLGMFTEGELMSVGMDTFIHRIDSTEVIYQPRRKRAKLIGKYLMGDLLGEGSYGKVKEVLDSETLCRRAVKILKKKKLRRIPNGEANVKKEIQLLRRLRHKNVIQLVDVLYNEEKQKMYMVMEYCVCGMQEMLDSVPEKRFPVCQAHGYFCQLIDGLEYLHSQGIVHKDIKPGNLLLTTGGTLKISDLGVAEALHPFAADDTCRTSQGSPAFQPPEIANGLDTFSGFKVDIWSAGVTLYNITTGLYPFEGDNIYKLFENIGKGSYAIPGDCGPPLSDLLKGMLEYEPAKRFSIRQIRQHSWFRKKHGPAEAPVPIPPSPDTKDRWRSMTVVPYLEDLHGADEDEDLFDIEDDIIYTQDFTVPGQVPEEEASHNGQRRGLPKAVCMNGTEAAQLSTKSRAEGRAPNPARKACSASSKIRRLSACKQQ [P314G], the STK11 functional score is 1.07 ± 0.47. With MEVVDPQQLGMFTEGELMSVGMDTFIHRIDSTEVIYQPRRKRAKLIGKYLMGDLLGEGSYGKVKEVLDSETLCRRAVKILKKKKLRRIPNGEANVKKEIQLLRRLRHKNVIQLVDVLYNEEKQKMYMVMEYCVCGMQEMLDSVPEKRFPVCQAHGYFCQLIDGLEYLHSQGIVHKDIKPGNLLLTTGGTLKISDLGVAEALHPFAADDTCRTSQGSPAFQPPEIANGLDTFSGFKVDIWSAGVTLYNITTGLYPFEGDNIYKLFENIGKGSYAIPGDCGPPLSDLLKGMLEYEPAKRFSIRQIRQHSWFRKKHIPAEAPVPIPPSPDTKDRWRSMTVVPYLEDLHGADEDEDLFDIEDDIIYTQDFTVPGQVPEEEASHNGQRRGLPKAVCMNGTEAAQLSTKSRAEGRAPNPARKACSASSKIRRLSACKQQ [P314I] the figure was 1.5 ± 0.15; with MEVVDPQQLGMFTEGELMSVGMDTFIHRIDSTEVIYQPRRKRAKLIGKYLMGDLLGEGSYGKVKEVLDSETLCRRAVKILKKKKLRRIPNGEANVKKEIQLLRRLRHKNVIQLVDVLYNEEKQKMYMVMEYCVCGMQEMLDSVPEKRFPVCQAHGYFCQLIDGLEYLHSQGIVHKDIKPGNLLLTTGGTLKISDLGVAEALHPFAADDTCRTSQGSPAFQPPEIANGLDTFSGFKVDIWSAGVTLYNITTGLYPFEGDNIYKLFENIGKGSYAIPGDCGPPLSDLLKGMLEYEPAKRFSIRQIRQHSWFRKKHMPAEAPVPIPPSPDTKDRWRSMTVVPYLEDLHGADEDEDLFDIEDDIIYTQDFTVPGQVPEEEASHNGQRRGLPKAVCMNGTEAAQLSTKSRAEGRAPNPARKACSASSKIRRLSACKQQ [P314M], 1.62 ± 0.15. With MEVVDPQQLGMFTEGELMSVGMDTFIHRIDSTEVIYQPRRKRAKLIGKYLMGDLLGEGSYGKVKEVLDSETLCRRAVKILKKKKLRRIPNGEANVKKEIQLLRRLRHKNVIQLVDVLYNEEKQKMYMVMEYCVCGMQEMLDSVPEKRFPVCQAHGYFCQLIDGLEYLHSQGIVHKDIKPGNLLLTTGGTLKISDLGVAEALHPFAADDTCRTSQGSPAFQPPEIANGLDTFSGFKVDIWSAGVTLYNITTGLYPFEGDNIYKLFENIGKGSYAIPGDCGPPLSDLLKGMLEYEPAKRFSIRQIRQHSWFRKKHNPAEAPVPIPPSPDTKDRWRSMTVVPYLEDLHGADEDEDLFDIEDDIIYTQDFTVPGQVPEEEASHNGQRRGLPKAVCMNGTEAAQLSTKSRAEGRAPNPARKACSASSKIRRLSACKQQ [P314N] the figure was 1.53 ± 0.13.
